Values of other authors in article PMC6085760.

Biological target: Amyloid-β (Homo sapiens) (UniProt P05067)
Sequence (P05067 672-711): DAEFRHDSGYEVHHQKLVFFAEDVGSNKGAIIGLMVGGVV

Kd: 156 µM
Substance: LPFFD peptide
